Results published in publication PMC9684555, “Structure- and computational-aided engineering of an oxidase to produce isoeugenol from a lignin-derived compound” (Nature Communications, 2022).

Tests used:
COc1cc(CO)ccc1O = tested on: T1, COc1cc(CO)ccc1O; assay: purified protein; format: biochemical, Rhodococcus jostii; settings: 50 mM KPi pH 7.5, O2 co-substrate, 0.05 µM enzyme
T1 construct: full length, 526 residues, C-terminal His6 tag (pBAD-EUGO-His6x), E. coli NEB10beta; covalent FAD; homodimer; mutants for crystals from His-SUMO fusion, tag cleaved

CCCc1ccc(O)c(OC)c1 = tested on: T2, CCCc1ccc(O)c(OC)c1; assay: purified protein; format: biochemical, Rhodococcus jostii; settings: 50 mM KPi pH 7.5, 10% v/v DMSO, 10 µM to 1 mM substrate, O2 co-substrate
T2 construct: full length, 526 residues, C-terminal His6 tag (pBAD-EUGO-His6x), E. coli NEB10beta; covalent FAD; homodimer; mutants for crystals from His-SUMO fusion, tag cleaved

Substance	Km (COc1cc(CO)ccc1O)	kcat (COc1cc(CO)ccc1O)	Km (CCCc1ccc(O)c(OC)c1; 100 nM enzyme)	kcat (CCCc1ccc(O)c(OC)c1; 100 nM enzyme)	Km (CCCc1ccc(O)c(OC)c1; 1.0 µM enzyme)	kcat (CCCc1ccc(O)c(OC)c1; 1.0 µM enzyme)
EUGO (eugenol oxidase) (Rhodococcus jostii RHA1; A423M/D151E/H434Y/I445D/Q425S/S394V/S518P/S81H)	94.9 ± 7.8 µM	2.8 ± 0.07 s⁻¹	7.4 ± 0.4 µM	0.43 ± 0.007 s⁻¹	–	–
EUGO (eugenol oxidase) (Rhodococcus jostii RHA1; A423M/D151E/H434Y/I445D/S394V/S518P/S81H)	2.9 ± 0.2 µM	0.15 ± 0.002 s⁻¹	–	–	3.0 ± 0.2 µM	0.08 ± 0.002 s⁻¹
EUGO (eugenol oxidase) (Rhodococcus jostii RHA1; A423M/H434Y/I445D/S394V/S518P/S81H)	7.1 ± 0.6 µM	0.075 ± 0.001 s⁻¹	–	–	3.4 ± 0.4 µM	0.028 ± 0.0003 s⁻¹
EUGO (eugenol oxidase) (Rhodococcus jostii RHA1; A423M/H434Y/I445D/S518P/S81H)	177.6 ± 15.8 µM	4.8 ± 0.2 s⁻¹	–	–	–	–
